The source of these data is patent US7041457B2, “Gαq protein variants and their use in the analysis and discovery of agonists and antagonists of chemosensory receptors” (Senomyx, Inc., priority 2000, dated 2006).

Test [1] concerns the target T1, bitter receptor mT2R5 (Mus musculus, UniProt Q9JKT4).
T1 construct: expressed in transfected cells
T1 sequence (Q9JKT4 1-300): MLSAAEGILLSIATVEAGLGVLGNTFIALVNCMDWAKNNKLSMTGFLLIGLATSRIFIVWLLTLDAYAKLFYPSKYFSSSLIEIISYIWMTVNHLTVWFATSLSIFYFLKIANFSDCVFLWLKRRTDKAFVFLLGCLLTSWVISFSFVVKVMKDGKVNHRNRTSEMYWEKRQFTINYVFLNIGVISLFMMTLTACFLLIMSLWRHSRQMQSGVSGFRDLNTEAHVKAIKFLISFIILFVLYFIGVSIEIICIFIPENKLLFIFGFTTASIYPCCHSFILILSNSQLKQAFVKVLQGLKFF
The test can be described thus: Functional coupling of Gq variants with bitter taste receptor mT2R5 (mammalian cell-based systems and Xenopus oocytes, calcium imaging). An excerpt: (§1) The present invention addresses the above described problems associated with using Gα15/α16, as well as other problems known in the art relating to the use of weakly promiscuous Gα proteins. […] According to the invention, the functional coupling can be determined, for example, by measuring changes in intracellular IP3 or calcium. In a particular embodiment, the Gq protein variants can be expressed in mammalian cell lines or Xenopus oocytes, and then evaluated using calcium fluorescence imaging and electrophysiological recording.
(§2) It was found by functional analysis using single-cell calcium imaging that activation of multi-family GPCRs evoked increases in cytosolic calcium in the presence of the Gαq variants with the G66D mutation. These GPCRs include Gαs-coupled β-adrenergic receptor, Gαolf-coupled mouse 17 olfactory receptor, Gαi-coupled m2 muscarinic receptor, and gustducin-coupled bitter receptor mT2R5. No significant change in cytosolic calcium could be detected by activation of the above GPCRs in the absence of the Gαq variants. Additional GPCRs can include those disclosed in U.S. patent application Ser. No. 09/510,332 filed Feb. 22, 2000 now abandoned; and U.S. Provisional Application Nos. 60/213,849 filed Jun. 23, 2000; 60/209,840 filed Jun. 6, 2000; 60/195,536 filed Apr. 7, 2000; 60/195,534 filed Apr. 7, 2000; 60/195,532 filed Apr. 7, 2000; which are herein incorporated by references for all purposes in a manner consistent with this disclosure.
A series of Gαq protein variants having the sequences listed in FIG. 3 were constructed and tested in mammalian cell-based systems and in Xenopus oocytes for functional coupling efficiency with bitter receptor mT2R5 and mouse olfactory receptor 17.

Test [2] concerns the target T2, mouse olfactory receptor 17 (Mus musculus, UniProt Q9QWU6).
T2 construct: expressed in transfected cells
T2 sequence (Q9QWU6 1-327): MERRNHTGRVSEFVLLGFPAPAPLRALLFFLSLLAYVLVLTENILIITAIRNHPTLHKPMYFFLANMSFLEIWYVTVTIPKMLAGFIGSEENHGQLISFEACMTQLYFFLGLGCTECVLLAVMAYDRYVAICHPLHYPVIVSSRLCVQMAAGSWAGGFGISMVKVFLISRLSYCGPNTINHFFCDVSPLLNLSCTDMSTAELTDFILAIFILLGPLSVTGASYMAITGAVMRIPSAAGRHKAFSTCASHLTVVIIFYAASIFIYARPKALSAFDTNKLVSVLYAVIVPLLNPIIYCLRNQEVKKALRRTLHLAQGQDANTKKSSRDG
Kind of test: Functional coupling of Gq variants with mouse olfactory receptor 17 (mammalian cell-based systems and Xenopus oocytes, calcium imaging). Details: key to the marks not given beside the values.
Excerpt: as §1
as §2, with “7, 2000; which are herein incorporated by references for all purposes in a manner consistent with this disclosure.” left out

B1: MGq (ΔN-HVD-HA)-t5: mouse Gαq ΔN-HVD-HA with C-terminal five amino acids replaced by those of transducin, SEQ ID NO:6 (protein, listed as Mus sp.)
chain: MACCLSEEAKEARRINDEIERHVRRDKRDARRELKLLLLGTGESGKSTFIKQMRIIHGSGYSDEDKRGFTKLVYQNIFTAMQAMIRAMDTLKIPYKYEHNKAHAQLVREVDVEKVSAFDVPDYAAIKSLWNDPGIQECYDRRREYQLSDSTKYYLNDLDRVADPSYLPTQQDVLRVRVPTTGIIEYPFDLQSVIFRMVDVGGQRSERRKWIHCFENVTSIMFLVALSEYDQVLVESDNENRMEESKALFRTIITYPWFQNSSVILFLNKKDLLEEKIMYSHLVDYFPEYDGPQRDAQAAREFILKMFVDLNPDSDKIIYSHFTCATDTENIRFVFAAVKDTILQLNLKDCGLF
modifications: HA tag; transducin C-terminal five residues
For the molecule B1, the “Functional Activity With Taste Receptor MT2R5” value in test [1] is given as “++”.

B2: MGq (ΔN-HVD-HA)-olf5: mouse Gαq ΔN-HVD-HA with C-terminal five amino acids of Gαolf, SEQ ID NO:14 (protein, listed as Mus sp.)
chain: MACCLSEEAKEARRINDEIERHVRRDKRDARRELKLLLLGTGESGKSTFIKQMRIIHGSDYSDEDKRGFTKLVYQNIFTAMQAMIRAMDTLKIPYKYEHNKAHAQLVREVDVEKVSAFDVPDYAAIKSLWNDPGIQECYDRRREYQLSDSTKYYLNDLDRVADPSYLPTQQDVLRVRVPTTGIIEYPFDLQSVIFRMVDVGGQRSERRKWIHCFENVTSIMFLVALSEYDQVLVESDNENRMEESKALFRTIITYPWFQNSSVILFLNKKDLLEEKIMYSHLVDYFPEYDGPQRDAQAAREFILKMFVDLNPDSDKIIYSHFTCATDTENIRFVFAAVKDTILQLNLKQYELL
modifications: HA tag; Gαolf C-terminal five residues
In the case of B2, the “Functional Activity with Olfactory Receptor ml7” value in test [2] is given as “++”.

B3: HGq: human Gαq protein, SEQ ID NO:15 (protein, listed as Homo sapiens)
chain: MTLESIMACCLSEEAKEARRINDEIERQLRRDKRDARRELKLLLLGTGESGKSTFIKQMRIIHGSGYSDEDKRGFTKLVYQNIFTAMQAMIRAMDTLKIPYKYEHNKAHAQLVREVDVEKVSAFENPYVDAIKSLWNDPGIQECYDRRREYQLSDSTKYYLNDLDRVADPAYLPTQQDVLRVRVPTTGIIEYPFDLQSVIFRMVDVGGQRSERRKWIHCFENVTSIMFLVALSEYDQVLVESDNENRMEESKALFRTIITYPWFQNSSVILFLNKKDLLEEKIMYSHLVDYFPEYDGPQRDAQAAREFILKMFVDLNPDSDKINYSHFTCATDTENIRFVFAAVKDTILQLNLKEYNAV
Consider B3, for which, in test [1], the “Functional Activity With Taste Receptor MT2R5” value is “−”.

B4: MGq (ΔN-HVD-HA)-t44: mouse Gαq ΔN-HVD-HA with C-terminal 44 amino acids of transducin, SEQ ID NO:7 (protein, listed as Mus sp.)
chain: MACCLSEEAKEARRINDEIERHVRRDKRDARRELKLLLLGTGESGKSTFIKQMRIIHGSGYSDEDKRGFTKLVYQNIFTAMQAMIRAMDTLKIPYKYEHNKAHAQLVREVDVEKVSAFDVPDYAAIKSLWNDPGIQECYDRRREYQLSDSTKYYLNDLDRVADPSYLPTQQDVLRVRVPTTGIIEYPFDLQSVIFRMVDVGGQRSERRKWIHCFENVTSIMFLVALSEYDQVLVESDNENRMEESKALFRTIITYPWFQNSSVILFLNKKDLLEEKIMYSHLVDYFPEYDGPQRDAQAAREFILKMFVDLNPDNMRRDVKEIYSHMTCATDTQNVKFVFDAVTDIIIKENLKDCGLF
modifications: HA tag; transducin C-terminal 44 residues
For B4, the “Functional Activity With Taste Receptor MT2R5” value in test [1] is “++”.

B5: HGq (ΔN): human Gαq with truncation of N-terminal six amino acids, SEQ ID NO:16 (protein, listed as Homo sapiens)
chain: MACCLSEEAKEARRINDEIERQLRRDKRDARRELKLLLLGTGESGKSTFIKQMRIIHGSGYSDEDKRGFTKLVYQNIFTAMQAMIRAMDTLKIPYKYEHNKAHAQLVREVDVEKVSAFENPYVDAIKSLWNDPGIQECYDRRREYQLSDSTKYYLNDLDRVADPAYLPTQQDVLRVRVPTTGIIEYPFDLQSVIFRMVDVGGQRSERRKWIHCFENVTSIMFLVALSEYDQVLVESDNENRMEESKALFRTIITYPWFQNSSVILFLNKKDLLEEKIMYSHLVDYFPEYDGPQRDAQAAREFILKMFVDLNPDSDKIIYSHFTCATDTENIRFVFAAVKDTILQLNLKEYNAV
Turning to B5, the “Functional Activity With Taste Receptor MT2R5” value in test [1] is “−”.

B6: MGq (HV-HA)-t5: mouse Gαq HV-HA with C-terminal five amino acids of transducin, SEQ ID NO:12 (protein, listed as Mus sp.)
chain: MTLESIMACCLSEEAKEARRINDEIERHVRRDKRDARRELKLLLLGTGESGKSTFIKQMRIIHGSGYSDEDKRGFTKLVYQNIFTAMQAMIRAMDTLKIPYKYEHNKAHAQLVREVDVEKVSAFDVPDYAAIKSLWNDPGIQECYDRRREYQLSDSTKYYLNDLDRVADPSYLPTQQDVLRVRVPTTGIIEYPFDLQSVIFRMVDVGGQRSERRKWIHCFENVTSIMFLVALSEYDQVLVESDNENRMEESKALFRTIITYPWFQNSSVILFLNKKDLLEEKIMYSHLVDYFPEYDGPQRDAQAAREFILKMFVDLNPDSDKIIYSHFTCATDTENIRFVFAAVKDTILQLNLKDCGLF
modifications: HA tag; transducin C-terminal five residues
Regarding B6, the “Functional Activity With Taste Receptor MT2R5” value in test [1] is given as “+”.

B7: MGq (HVD-HA)-t5: mouse Gαq HVD-HA with C-terminal five amino acids of transducin, SEQ ID NO:13 (protein, listed as Mus sp.)
chain: MTLESIMACCLSEEAKEARRINDEIERHVRRDKRDARRELKLLLLGTGESGKSTFIKQMRIIHGSDYSDEDKRGFTKLVYQNIFTAMQAMIRAMDTLKIPYKYEHNKAHAQLVREVDVEKVSAFDVPDYAAIKSLWNDPGIQECYDRRREYQLSDSTKYYLNDLDRVADPSYLPTQQDVLRVRVPTTGIIEYPFDLQSVIFRMVDVGGQRSERRKWIHCFENVTSIMFLVALSEYDQVLVESDNENRMEESKALFRTIITYPWFQNSSVILFLNKKDLLEEKIMYSHLVDYFPEYDGPQRDAQAAREFILKMFVDLNPDSDKIIYSHFTCATDTENIRFVFAAVKDTILQLNLKDCGLF
modifications: HA tag; transducin C-terminal five residues
On to B7, for which the “Functional Activity With Taste Receptor MT2R5” value in test [1] was “++”.
